Laboratory results published in publication PMC6959147 (2019).

B1: mAb 10_3 (IgG4 converted from scFv 10_3) (antibody, V domains shown)
VH: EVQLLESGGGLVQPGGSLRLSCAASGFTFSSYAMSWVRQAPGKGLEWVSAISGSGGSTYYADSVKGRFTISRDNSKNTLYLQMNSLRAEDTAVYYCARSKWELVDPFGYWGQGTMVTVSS
VL: NFMLTQPHSVSESPGKTITISCTRSSGSIAGNYVQWYQQRPGSAPIIVIYEDNQRPSGVPDRFSGSIDSSSNSASLTISRLKTEDEADYYCQSYEASNVVFGGGTKLTVL
B2: scFv-yeast clone 3_3 (scFv, V domains shown)
VH: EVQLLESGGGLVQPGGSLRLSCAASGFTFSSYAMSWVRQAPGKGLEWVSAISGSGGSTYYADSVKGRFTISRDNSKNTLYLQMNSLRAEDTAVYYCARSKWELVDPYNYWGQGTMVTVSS
VL: B1 VL
B3: wild type anti-PD-L1 scFv PD-L1_1 displayed on yeast (scFv, V domains shown)
VH: not shown
VL: B1 VL
B4: scFv-yeast clone 3_17 (scFv, V domains shown)
VH: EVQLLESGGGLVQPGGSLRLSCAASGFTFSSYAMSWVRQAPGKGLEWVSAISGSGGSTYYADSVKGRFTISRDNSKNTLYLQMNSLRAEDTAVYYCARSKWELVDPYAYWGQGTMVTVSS
VL: B1 VL
B5: scFv-yeast clone 10_12 (scFv, V domains shown)
VH: not shown
VL: B1 VL
B6: scFv-yeast clone 3_7 (scFv, V domains shown)
VH: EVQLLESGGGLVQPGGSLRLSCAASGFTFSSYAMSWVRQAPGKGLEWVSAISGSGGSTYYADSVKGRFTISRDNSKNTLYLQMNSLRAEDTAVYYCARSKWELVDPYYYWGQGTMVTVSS
VL: B1 VL
B7: scFv-yeast clone 3_14 (scFv, V domains shown)
VH: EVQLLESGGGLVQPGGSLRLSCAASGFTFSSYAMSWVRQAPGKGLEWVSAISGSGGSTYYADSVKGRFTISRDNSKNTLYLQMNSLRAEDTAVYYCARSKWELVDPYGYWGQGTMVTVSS
VL: B1 VL
B8: scFv-yeast clone 10_3 (scFv, V domains shown)
VH: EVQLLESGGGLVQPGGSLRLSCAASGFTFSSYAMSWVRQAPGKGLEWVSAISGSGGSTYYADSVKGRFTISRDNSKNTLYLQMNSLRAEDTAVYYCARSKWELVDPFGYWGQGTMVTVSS
VL: B1 VL

These binders were tested against PD-L1 expressed in its native conformation on activated human PBMCs (human (endogenous in hPBMCs), UniProt Q9NZQ7 19-290) (assay: FACS).
PD-L1 expressed in its native conformation on activated human PBMCs, sequence (Q9NZQ7 19-290): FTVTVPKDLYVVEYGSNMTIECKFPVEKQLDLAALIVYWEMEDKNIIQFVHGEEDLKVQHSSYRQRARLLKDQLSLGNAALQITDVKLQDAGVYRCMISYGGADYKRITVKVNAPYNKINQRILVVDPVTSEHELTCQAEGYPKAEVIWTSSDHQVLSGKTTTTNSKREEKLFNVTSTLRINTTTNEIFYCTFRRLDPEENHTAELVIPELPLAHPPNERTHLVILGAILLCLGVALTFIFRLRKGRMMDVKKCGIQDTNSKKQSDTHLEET

B1 was tested, and the Kd was 2 nM.

Each binder was assayed against recombinant human PD-L1, Fc-tagged (rhPD-L1-Fc) (human, UniProt Q9NZQ7 19-238) (assay: FACS).
recombinant human PD-L1, Fc-tagged (rhPD-L1-Fc), sequence (Q9NZQ7 19-238): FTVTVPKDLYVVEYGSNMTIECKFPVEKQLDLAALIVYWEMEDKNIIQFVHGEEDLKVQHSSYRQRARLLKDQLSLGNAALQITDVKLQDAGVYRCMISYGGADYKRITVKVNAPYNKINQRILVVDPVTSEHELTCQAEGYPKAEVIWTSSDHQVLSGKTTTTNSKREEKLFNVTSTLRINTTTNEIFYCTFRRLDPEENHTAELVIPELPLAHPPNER

Going from B2 to B3, the Kd rises from 0.6 nM to 4.55 nM (7.6-fold).

Going from B4 to B5, the Kd rises from 0.46 nM to 0.73 nM (1.6-fold). The first binds more tightly here.

B6 and B7 are within 1.5-fold of each other in Kd: 0.68 nM for the first, 0.58 nM for the second.

In the case of B8, the Kd is reported as 0.5 nM.
